Changes are numbered by the printed parent chain.
T1: mouse Myh (mMyh), recombinant (mouse, UniProt Q99P21 1-515)
T1 sequence (looked up): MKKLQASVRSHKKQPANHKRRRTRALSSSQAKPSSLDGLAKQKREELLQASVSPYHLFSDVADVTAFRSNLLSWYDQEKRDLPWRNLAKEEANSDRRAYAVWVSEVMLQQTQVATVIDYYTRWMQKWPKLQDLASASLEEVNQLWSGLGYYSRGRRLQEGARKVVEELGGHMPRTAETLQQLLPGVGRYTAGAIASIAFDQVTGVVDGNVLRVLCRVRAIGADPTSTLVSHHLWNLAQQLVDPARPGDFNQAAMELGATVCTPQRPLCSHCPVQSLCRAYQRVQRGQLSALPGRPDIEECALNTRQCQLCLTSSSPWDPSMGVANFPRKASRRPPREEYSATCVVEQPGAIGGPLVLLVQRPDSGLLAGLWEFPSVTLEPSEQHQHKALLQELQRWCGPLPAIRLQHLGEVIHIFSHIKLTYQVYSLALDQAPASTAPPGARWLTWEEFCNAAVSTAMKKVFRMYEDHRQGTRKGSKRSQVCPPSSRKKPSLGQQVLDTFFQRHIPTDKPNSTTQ

T2: GST-hMYH(1-350) Q324H (human, UniProt Q9UIF7-3 1-350, Q324H)
T2 construct: human MutY homolog (MYH, MUTYH), residues 1-350 with Q324H, a variant found in MAP patients; also called hMYH^Q324H; Q338H according to the new nomenclature; source: purified, immobilised on beads
T2 sequence (looked up): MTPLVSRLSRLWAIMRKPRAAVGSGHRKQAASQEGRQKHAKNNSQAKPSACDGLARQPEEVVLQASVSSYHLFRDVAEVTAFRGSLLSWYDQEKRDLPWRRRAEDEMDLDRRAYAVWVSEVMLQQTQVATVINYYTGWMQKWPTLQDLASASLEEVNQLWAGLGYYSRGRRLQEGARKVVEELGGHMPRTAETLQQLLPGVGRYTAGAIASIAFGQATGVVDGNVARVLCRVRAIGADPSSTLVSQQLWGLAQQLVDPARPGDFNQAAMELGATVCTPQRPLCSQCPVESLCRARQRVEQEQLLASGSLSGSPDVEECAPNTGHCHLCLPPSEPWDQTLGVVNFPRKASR

T3: GST-hRad9 (human, UniProt Q99638 1-391)
T3 construct: human Rad9, subunit of the Rad9-Rad1-Hus1 checkpoint clamp; also called GST-Rad9; GST-tagged hRad9; source: immobilised on beads
T3 sequence (looked up): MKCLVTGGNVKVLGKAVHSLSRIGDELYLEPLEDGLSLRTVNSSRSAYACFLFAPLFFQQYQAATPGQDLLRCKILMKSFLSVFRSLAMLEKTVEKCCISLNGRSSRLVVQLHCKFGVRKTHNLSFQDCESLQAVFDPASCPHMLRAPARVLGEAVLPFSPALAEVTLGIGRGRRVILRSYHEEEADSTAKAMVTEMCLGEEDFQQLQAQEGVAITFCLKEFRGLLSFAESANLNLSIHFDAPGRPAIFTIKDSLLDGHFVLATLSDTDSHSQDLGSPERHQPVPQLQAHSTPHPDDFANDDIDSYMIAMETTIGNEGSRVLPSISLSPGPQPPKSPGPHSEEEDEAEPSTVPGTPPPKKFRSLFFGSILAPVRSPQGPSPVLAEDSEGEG

T4: GST-hMYH(1-350) (human, UniProt Q9UIF7-3 1-350)
T4 construct: also called MYHΔC3; ΔC3; source: purified, immobilised on beads
T4 sequence (looked up): T2 sequence (looked up) with H324Q

B1: GST-hMYH(65-350) (domain or fragment, human, UniProt Q9UIF7-3 65-350, looked up)
chain: ASVSSYHLFRDVAEVTAFRGSLLSWYDQEKRDLPWRRRAEDEMDLDRRAYAVWVSEVMLQQTQVATVINYYTGWMQKWPTLQDLASASLEEVNQLWAGLGYYSRGRRLQEGARKVVEELGGHMPRTAETLQQLLPGVGRYTAGAIASIAFGQATGVVDGNVARVLCRVRAIGADPSSTLVSQQLWGLAQQLVDPARPGDFNQAAMELGATVCTPQRPLCSQCPVESLCRARQRVEQEQLLASGSLSGSPDVEECAPNTGQCHLCLPPSEPWDQTLGVVNFPRKASR
notes: also called MYHΔC5; ΔC5; source: purified, immobilised on beads
B2: FLAG-tagged mouse Sirt6 (FLAG-mSirt6), wild type (natural protein, UniProt P59941 1-334, looked up)
chain: MSVNYAAGLSPYADKGKCGLPEIFDPPEELERKVWELARLMWQSSSVVFHTGAGISTASGIPDFRGPHGVWTMEERGLAPKFDTTFENARPSKTHMALVQLERMGFLSFLVSQNVDGLHVRSGFPRDKLAELHGNMFVEECPKCKTQYVRDTVVGTMGLKATGRLCTVAKTRGLRACRGELRDTILDWEDSLPDRDLMLADEASRTADLSVTLGTSLQIRPSGNLPLATKRRGGRLVIVNLQPTKHDRQADLRIHGYVDEVMCRLMKHLGLEIPAWDGPCVLDKALPPLPRPVALKAEPPVHLNGAVHVSYKSKPNSPILHRPPKRVKTEAAPS
notes: mouse Sirt6, full length cDNA in pcDNA3.1; about 90% pure
B3: His-tagged human Hus1 (hHus1) (natural protein, UniProt O60921 1-280, looked up)
chain: MKFRAKIVDGACLNHFTRISNMIAKLAKTCTLRISPDKLNFILCDKLANGGVSMWCELEQENFFNEFQMEGVSAENNEIYLELTSENLSRALKTAQNARALKIKLTNKHFPCLTVSVELLSMSSSSRIVTHDIPIKVIPRKLWKDLQEPVVPDPDVSIYLPVLKTMKSVVEKMKNISNHLVIEANLDGELNLKIETELVCVTTHFKDLGNPPLASESTHEDRNVEHMAEVHIDIRKLLQFLAGQQVNPTKALCNIVNNKMVHFDLLHEDVSLQYFIPALS
notes: human Hus1, subunit of the Rad9-Rad1-Hus1 checkpoint clamp; pET21a usually adds a C-terminal His6 (surmise); source: E. coli BL21-Star with pET21a-hHus1, purified
B4: GST-hRad1 (natural protein, human, UniProt O60671 1-282, looked up)
chain: MPLLTQQIQDEDDQYSLVASLDNVRNLSTILKAIHFREHATCFATKNGIKVTVENAKCVQANAFIQAGIFQEFKVQEESVTFRINLTVLLDCLSIFGSSPMPGTLTALRMCYQGYGYPLMLFLEEGGVVTVCKINTQEPEETLDFDFCSTNVINKIILQSEGLREAFSELDMTSEVLQITMSPDKPYFRLSTFGNAGSSHLDYPKDSDLMEAFHCNQTQVNRYKISLLKPSTKALVLSCKVSIRTDNRGFLSLQYMIRNEDGQICFVEYYCCPDEEVPESES
notes: human Rad1, subunit of the Rad9-Rad1-Hus1 checkpoint clamp; also called GST-Rad1; GST-tagged hRad1; source: immobilised on beads

Experiments:
[1] = target: B2; assay: pull-down; GST fusion protein immobilised on beads; 50 ug/ml ethidium bromide added for 30 min before the partner; bound protein detected by Western blot (FLAG, hAPE1 or His antibody); in some panels a further purified partner (hAPE1, mSirt6, hHus1) was added; conditions: both partners purified
[2] = target: human APE1 (hAPE1), recombinant (human, UniProt P27695 1-318); assay: cell-based or functional assay
[3] = target: T1, mouse Myh (mMyh), recombinant; assay: cell-based or functional assay
GST-hMYH(1-350) Q324H = target: T2, GST-hMYH(1-350) Q324H; assay: pull-down; GST fusion protein immobilised on beads; 50 ug/ml ethidium bromide added for 30 min before the partner; bound protein detected by Western blot (FLAG, hAPE1 or His antibody); in some panels a further purified partner (hAPE1, mSirt6, hHus1) was added; conditions: both partners purified
GST-hRad9 = target: T3, GST-hRad9; assay: as above; conditions: both partners purified
GST-hMYH(1-350) = target: T4, GST-hMYH(1-350); assay: as above; conditions: both partners purified

Chain of human APE1 (hAPE1), recombinant (P27695 whole entry): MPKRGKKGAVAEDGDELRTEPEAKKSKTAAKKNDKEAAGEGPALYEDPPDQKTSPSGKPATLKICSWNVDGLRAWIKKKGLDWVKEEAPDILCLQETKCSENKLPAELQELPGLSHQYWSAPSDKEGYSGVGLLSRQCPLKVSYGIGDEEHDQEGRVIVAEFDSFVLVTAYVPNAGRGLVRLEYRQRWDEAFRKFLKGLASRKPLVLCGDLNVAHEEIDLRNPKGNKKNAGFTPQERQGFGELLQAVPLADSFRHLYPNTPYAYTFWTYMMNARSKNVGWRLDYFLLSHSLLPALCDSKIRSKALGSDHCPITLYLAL

Binder: B1
- binding result [1]: binds

Binder: B2
- 3'-phosphodiesterase activity of hAPE1 on 3'-FAM-labeled U/G-DNA (0.01 nM hAPE1, 1-16 nM mSirt6); fold stimulation at a Sirt6/APE1 ratio of 400 [2]: 2 fold
- AP endonuclease activity of hAPE1 on FAM-labeled THF/G-DNA (0.002 nM hAPE1, 1-8 nM mSirt6); fold stimulation at a Sirt6/APE1 ratio of 3,000 [2]: 2 fold
- mMyh glycosylase activity on FAM-labeled A/G^o-DNA (0.5 nM mMyh, 1-32 nM mSirt6); fold stimulation at a Sirt6/Myh ratio of 32 [3]: 3 fold
- binding result (GST-hMYH(1-350) Q324H): binds
- binding result (GST-hRad9): binds
- fold stimulation of binding with a tenfold excess of hAPE1, against no hAPE1 (GST-hMYH(1-350)): 3 fold

Binder: B3
- binding result (GST-hMYH(1-350)): binds

Binder: B4
- binding result [1]: binds

Reference: article PMC4464616, “SIRT6 protein deacetylase interacts with MYH DNA glycosylase, APE1 endonuclease, and Rad9–Rad1–Hus1 checkpoint clamp” (BMC Molecular Biology, 2015)
